The chains are these.
B1: muMNACEP (antibody, V domains shown)
VH: EVKLMESGGGLVQPGGSLKLSCAASGFTFSTYTMSWARQTPEKRLEWVAYISKGGGSTYYPDTVKGRFTISRDNAKNTLYLQMSSLKSEDTALYYCARGAMYGNDFFYPMDYWGQQTSVTVSS
VL: DIVLSQSPAIMSASLGEEITLTCSASSSVSYMHWYQQKSGTSPKLLITTTSNLASGVPSRFSGSGSGTFYSLTISSVEAEDAADYYCHQWSSYPWTFGGGTKLEIK
notes: Murine monoclonal antibody as disclosed in EP1181318; also called murine antibody MNAC13; MNAC13
B2: BXhVH2VL7 (antibody, human IgG1, V domains shown)
VH: EVQLLESGGGLVQPGGSLRLSCAASGFTFSTYTMSWVRQTPGKRLEWVAYISKGGGSTYYPDTVKGRFTISRDNSKNTLYLQMNSLRAEDTAVYYCAKGAMYGNDFFYPMDYWGQGTTVTVSS
VL: QIVLTQSPATLSLSPGERATLSCSASSSVSYMHWYQQKPGQSPRLLIYTTSNLASGIPSRFSGSGSGTFYTLTISSLEPEDAADYYCHQWSSYPWTFGGGTKLEIK
notes: Human IgG1 constant regions (IgG1 expression vectors); COS-7 supernatant; also called hVH2/hVL7
B3: HuMNACWOv (antibody, V domains shown)
VH: B2 VH with V37A, T40A, R44G, T91S, K98R, T118L
VL: DIVLTQSPSSLSASVGDRVTITCSASSSVSYMHWYQQKPGQAPKLLIYTTSNLASGVPSRFSGSGSGTDYTLTISSLQPEDVATYYCHQWSSYPWTFGGGTKVEIK
notes: Variant of HuMNACWO whose heavy chain CDR3 is replaced with that of muMNACEP; also called hVHWOv/hVLWO; HuVHWOv/HuVLWO
B4: BXhVH3VL2 (antibody, human IgG1, V domains shown)
VH: B2 VH with T40A, K98R
VL: B2 VL with Q1E, F69D, Y70F, G99Q
notes: Human IgG1 constant regions (IgG1 expression vectors); COS-7 supernatant; also called hVH3/hVL2
B5: BXhVH2VL3 (antibody, human IgG1, V domains shown)
VH: B2 VH
VL: B2 VL with A82F, D84V
notes: Human IgG1 constant regions (IgG1 expression vectors); COS-7 supernatant; also called hVH2/hVL3
B6: BXhVH3VL7 (antibody, human IgG1, V domains shown)
VH: B2 VH with T40A, K98R
VL: B2 VL
notes: Human IgG1 constant regions (IgG1 expression vectors); COS-7 supernatant; also called hVH3/hVL7
B7: BXhVH2VL6 (antibody, human IgG1, V domains shown)
VH: B2 VH
VL: B2 VL with Q1E, R18E
notes: Human IgG1 constant regions (IgG1 expression vectors); COS-7 supernatant; also called hVH2/hVL6
B8: BXhVH3VL1 (antibody, human IgG1, V domains shown)
VH: B2 VH with T40A, K98R
VL: B2 VL with Q1E, S42A, S59A, F69D, Y70F, A82F, D84V, G99Q
notes: Human IgG1 constant regions (IgG1 expression vectors); COS-7 supernatant; also called hVH3/hVL1
B9: BXhVH3VL6 (antibody, human IgG1, V domains shown)
VH: B2 VH with T40A, K98R
VL: B2 VL with Q1E, R18E
notes: Human IgG1 constant regions (IgG1 expression vectors); COS-7 supernatant; also called hVH3/hVL6
B10: BXhVH1VL6 (antibody, human IgG1, V domains shown)
VH: B2 VH with Q3K, R44G
VL: B2 VL with Q1E, R18E
notes: Human IgG1 constant regions (IgG1 expression vectors); COS-7 supernatant; also called hVH1/hVL6
B11: BXhVH2VL1 (antibody, human IgG1, V domains shown)
VH: B2 VH
VL: B2 VL with Q1E, S42A, S59A, F69D, Y70F, A82F, D84V, G99Q
notes: Human IgG1 constant regions (IgG1 expression vectors); COS-7 supernatant; also called hVH2/hVL1
B12: BXhVH3VL8 (antibody, human IgG1, V domains shown)
VH: B2 VH with T40A, K98R
VL: B2 VL with R18E, P39S, Q41T
notes: Human IgG1 constant regions (IgG1 expression vectors); COS-7 supernatant; also called hVH3/hVL8
B13: BXhVH5VL5 (antibody, human IgG1, V domains shown)
VH: B2 VH with Q3K, K98R
VL: B2 VL with F69D, G99Q
notes: Human IgG1 constant regions (IgG1 expression vectors); COS-7 supernatant; also called hVH5/hVL5
B14: BXhVH5VL2 (antibody, human IgG1, V domains shown)
VH: B2 VH with Q3K, K98R
VL: B2 VL with Q1E, F69D, Y70F, G99Q
notes: Human IgG1 constant regions (IgG1 expression vectors); COS-7 supernatant; also called hVH5/hVL2
B15: BXhVH2VL5 (antibody, human IgG1, V domains shown)
VH: B2 VH
VL: B2 VL with F69D, G99Q
notes: Human IgG1 constant regions (IgG1 expression vectors); COS-7 supernatant; also called hVH2/hVL5
B16: BXhVH5VL6 (antibody, human IgG1, V domains shown)
VH: B2 VH with Q3K, K98R
VL: B2 VL with Q1E, R18E
notes: Human IgG1 constant regions (IgG1 expression vectors); COS-7 supernatant; also called hVH5/hVL6
B17: BXhVH1VL2 (antibody, human IgG1, V domains shown)
VH: B2 VH with Q3K, R44G
VL: B2 VL with Q1E, F69D, Y70F, G99Q
notes: Human IgG1 constant regions (IgG1 expression vectors); COS-7 supernatant; also called hVH1/hVL2
B18: BXhVH3VL4 (antibody, human IgG1, V domains shown)
VH: B2 VH with T40A, K98R
VL: B2 VL with F69D, Y70F
notes: Human IgG1 constant regions (IgG1 expression vectors); COS-7 supernatant; also called hVH3/hVL4
B19: BXhVH2VL2 (antibody, human IgG1, V domains shown)
VH: B2 VH
VL: B2 VL with Q1E, F69D, Y70F, G99Q
notes: Human IgG1 constant regions (IgG1 expression vectors); COS-7 supernatant; also called hVH2/hVL2
B20: BXhVH3VL5 (antibody, human IgG1, V domains shown)
VH: B2 VH with T40A, K98R
VL: B2 VL with F69D, G99Q
notes: Human IgG1 constant regions (IgG1 expression vectors); COS-7 supernatant; also called hVH3/hVL5
B21: BXhVH5VL7 (antibody, human IgG1, V domains shown)
VH: B2 VH with Q3K, K98R
VL: B2 VL
notes: Human IgG1 constant regions (IgG1 expression vectors); COS-7 supernatant; also called hVH5/hVL7
B22: BXhVH2VL8 (antibody, human IgG1, V domains shown)
VH: B2 VH
VL: B2 VL with R18E, P39S, Q41T
notes: Human IgG1 constant regions (IgG1 expression vectors); COS-7 supernatant; also called hVH2/hVL8
B23: BXhVH2VL4 (antibody, human IgG1, V domains shown)
VH: B2 VH
VL: B2 VL with F69D, Y70F
notes: Human IgG1 constant regions (IgG1 expression vectors); COS-7 supernatant; also called hVH2/hVL4
B24: BXhVH5VL4 (antibody, human IgG1, V domains shown)
VH: B2 VH with Q3K, K98R
VL: B2 VL with F69D, Y70F
notes: Human IgG1 constant regions (IgG1 expression vectors); COS-7 supernatant; also called hVH5/hVL4
B25: BXhVH1VL5 (antibody, human IgG1, V domains shown)
VH: B2 VH with Q3K, R44G
VL: B2 VL with F69D, G99Q
notes: Human IgG1 constant regions (IgG1 expression vectors); COS-7 supernatant; also called hVH1/hVL5
B26: BXhVH1VL1 (antibody, human IgG1, V domains shown)
VH: B2 VH with Q3K, R44G
VL: B2 VL with Q1E, S42A, S59A, F69D, Y70F, A82F, D84V, G99Q
notes: Human IgG1 constant regions (IgG1 expression vectors); COS-7 supernatant; also called hVH1/hVL1
B27: BXhVH1VL4 (antibody, human IgG1, V domains shown)
VH: B2 VH with Q3K, R44G
VL: B2 VL with F69D, Y70F
notes: Human IgG1 constant regions (IgG1 expression vectors); COS-7 supernatant; also called hVH1/hVL4
B28: BXhVH1VL8 (antibody, human IgG1, V domains shown)
VH: B2 VH with Q3K, R44G
VL: B2 VL with R18E, P39S, Q41T
notes: Human IgG1 constant regions (IgG1 expression vectors); COS-7 supernatant; also called hVH1/hVL8
B29: BXhVH1VL3 (antibody, human IgG1, V domains shown)
VH: B2 VH with Q3K, R44G
VL: B2 VL with A82F, D84V
notes: Human IgG1 constant regions (IgG1 expression vectors); COS-7 supernatant; also called hVH1/hVL3
B30: BXhVH1VL7 (antibody, human IgG1, V domains shown)
VH: B2 VH with Q3K, R44G
VL: B2 VL
notes: Human IgG1 constant regions (IgG1 expression vectors); COS-7 supernatant; also called hVH1/hVL7

From patent US20110145941A1 (LAY LINE GENOMICS S P A, published 2011) come the findings set out here.

Numbering of substitutions follows the chain as printed.

T2 sequence (P04629 33-423 limits assumed): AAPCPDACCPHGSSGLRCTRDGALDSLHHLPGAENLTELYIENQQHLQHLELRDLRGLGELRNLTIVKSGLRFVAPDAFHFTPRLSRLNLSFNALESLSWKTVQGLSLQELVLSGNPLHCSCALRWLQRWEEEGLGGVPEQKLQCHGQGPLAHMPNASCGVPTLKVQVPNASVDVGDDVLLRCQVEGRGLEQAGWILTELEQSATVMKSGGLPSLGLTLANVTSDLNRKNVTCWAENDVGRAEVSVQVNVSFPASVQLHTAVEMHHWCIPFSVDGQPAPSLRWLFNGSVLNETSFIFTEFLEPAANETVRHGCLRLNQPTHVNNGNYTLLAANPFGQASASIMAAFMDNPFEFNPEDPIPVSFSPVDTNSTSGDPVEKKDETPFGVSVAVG

One assay deals with T1, human TrkA receptor on the cell surface (human, UniProt P04629 33-796). Kind of assay: cell-based or functional assay.
T1 sequence (P04629 33-796): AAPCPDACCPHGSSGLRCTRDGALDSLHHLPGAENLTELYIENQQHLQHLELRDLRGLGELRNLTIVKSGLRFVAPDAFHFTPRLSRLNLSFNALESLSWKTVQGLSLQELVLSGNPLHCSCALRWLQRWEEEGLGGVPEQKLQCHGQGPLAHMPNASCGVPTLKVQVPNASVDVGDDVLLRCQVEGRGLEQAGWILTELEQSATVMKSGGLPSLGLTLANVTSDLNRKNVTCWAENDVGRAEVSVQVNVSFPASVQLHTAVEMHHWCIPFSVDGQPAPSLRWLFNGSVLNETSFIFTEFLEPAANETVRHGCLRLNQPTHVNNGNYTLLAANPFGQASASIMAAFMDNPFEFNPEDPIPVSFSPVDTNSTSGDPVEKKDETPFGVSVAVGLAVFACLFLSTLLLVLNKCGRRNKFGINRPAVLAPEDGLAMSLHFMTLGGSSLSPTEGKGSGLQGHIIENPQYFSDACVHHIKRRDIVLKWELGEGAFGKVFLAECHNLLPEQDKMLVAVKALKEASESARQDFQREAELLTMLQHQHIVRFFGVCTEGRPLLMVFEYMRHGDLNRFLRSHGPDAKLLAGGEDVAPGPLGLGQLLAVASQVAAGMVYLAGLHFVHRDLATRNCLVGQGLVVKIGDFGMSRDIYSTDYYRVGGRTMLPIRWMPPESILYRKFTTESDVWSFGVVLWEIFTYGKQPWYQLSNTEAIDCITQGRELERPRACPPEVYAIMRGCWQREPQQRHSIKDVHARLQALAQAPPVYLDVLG
In the case of B1, the “Proliferation assay on TF1 cells IC50 (µg/ml), Mean” value was 0.54 µg/mL.

The next assay concerns the target T1, human TrkA receptor on the cell surface. Nature of the assay: flow cytometry on TF-1 cells, 4 µg/ml. Details: Geo Mean Fluorescence: reference not given here. In general terms: A flow cytometer gives signals particle by particle.
For the molecule B2, the “Fold Increase” value came to 1.9 fold and the “Geo Mean Fluorescence” value is 6.5.

As to B3, the “Fold Increase” value turned out to be 2.6 fold and the “Geo Mean Fluorescence” value was found to be 8.9.

Turning to B4, the “Fold Increase” value worked out at 2 fold and the “Geo Mean Fluorescence” value worked out at 7.1.

In the case of B5, the “Fold Increase” value turned out to be 3.1 fold and the “Geo Mean Fluorescence” value came to 10.8.

Take B6: the “Fold Increase” value is 2 fold and the “Geo Mean Fluorescence” value is 7.1.

As to B7, the “Fold Increase” value came to 1.8 fold and the “Geo Mean Fluorescence” value was found to be 6.4.

As to B8, the “Fold Increase” value was 2.5 fold and the “Geo Mean Fluorescence” value is 8.6.

With B9, the “Fold Increase” value came out at 1.8 fold and the “Geo Mean Fluorescence” value was 6.4.

B10: the “Fold Increase” value is 1.4 fold and the “Geo Mean Fluorescence” value came to 4.9.

Consider B11, for which the “Fold Increase” value came to 2.6 fold and the “Geo Mean Fluorescence” value came out at 9.2.

In the case of B12, the “Fold Increase” value turned out to be 1.9 fold and the “Geo Mean Fluorescence” value is 6.5.

For the molecule B13, the “Fold Increase” value came to 2.4 fold and the “Geo Mean Fluorescence” value was determined as 8.3.

For the molecule B14, the “Fold Increase” value worked out at 2.5 fold and the “Geo Mean Fluorescence” value came to 8.6.

Take B15: the “Fold Increase” value stood at 1.8 fold and the “Geo Mean Fluorescence” value stood at 6.4.

B16: the “Fold Increase” value turned out to be 2.6 fold and the “Geo Mean Fluorescence” value stood at 9.1.

Consider B17, for which the “Fold Increase” value was 1.3 fold and the “Geo Mean Fluorescence” value turned out to be 4.6.

As for B18, the “Fold Increase” value was 2 fold and the “Geo Mean Fluorescence” value amounted to 7.1.

On to B19, for which the “Fold Increase” value stood at 1.8 fold and the “Geo Mean Fluorescence” value is 6.4.

Turning to B20, the “Fold Increase” value turned out to be 2 fold and the “Geo Mean Fluorescence” value is 6.9.

In the case of B21, the “Fold Increase” value was determined as 2.5 fold and the “Geo Mean Fluorescence” value came out at 8.6.

B22: the “Fold Increase” value turned out to be 1.9 fold and the “Geo Mean Fluorescence” value was 6.5.

Take B23: the “Fold Increase” value was found to be 1.8 fold and the “Geo Mean Fluorescence” value is 6.1.

Take B24: the “Fold Increase” value came out at 2.6 fold and the “Geo Mean Fluorescence” value amounted to 9.1.

As for B25, the “Fold Increase” value turned out to be 1.3 fold and the “Geo Mean Fluorescence” value is 4.5.

As for B26, the “Fold Increase” value worked out at 1.7 fold and the “Geo Mean Fluorescence” value amounted to 5.7.

Turning to B27, the “Fold Increase” value worked out at 1.5 fold and the “Geo Mean Fluorescence” value stood at 5.1.

For B28, the “Fold Increase” value is 1.5 fold and the “Geo Mean Fluorescence” value came out at 5.2.

In the case of B29, the “Fold Increase” value came out at 1.8 fold and the “Geo Mean Fluorescence” value was found to be 6.1.

On to B30, for which the “Fold Increase” value was 1.5 fold and the “Geo Mean Fluorescence” value turned out to be 5.1.

A further assay has as its target T2, TrkA-IgG (UniProt P04629 33-423, limits assumed).
T2 construct: also called specific antigen TrkA-IgG; not shown: IgG part of the fusion
Kind of assay: SPR (BIACORE 2000), TrkA-IgG immobilised on CM-5 chip, 'separated 1:1' fit. How it is done: Surface plasmon resonance analysis was used to measure the association and dissociation rate constants for binding kinetics of the different antibodies (murine, chimeric, 5 humanised variants) towards TrkA-IgG using BIACORE 2000 (Biacore AB, Uppsala, Sweden). TrkA-IgG was immobilised on a CM-5 sensor chip according to manufacturer's conditions, in a way to achieve an immobilization density of 1100 RU. Each antibody sample was analyzed in antibody concentration ranges of 20-0.63 μg/ml. Calculations from the sensograms were performed by using the BIA evaluation version 3 (1999) software.
Analysis of the individual sets of sensograms was performed with the BIA evaluation version 3 (1999) software. Among the different models tested to fit the kinetics data, the best fitting was obtained with the “separated 1:1” algorithm. In this model, only a defined range of the early association and dissociation curves was used for the calculation.
(Surface plasmon resonance follows binding to a sensor surface in real time, without labels.)
Consider B1, for which the affinity, expressed as Kd, was 0.25 nM; the off-rate constant (koff) – broadly, the first-order rate constant of dissociation – came to 0.000167 s⁻¹; the association rate constant (kon) – broadly, a measure of how fast the partners come together – was determined as 850000 M⁻¹ s⁻¹.

With B3, the dissociation constant Kd (as a rule, the equilibrium constant for the complex coming apart) stood at 2.48 nM; the off-rate (koff) is 0.00386 s⁻¹; the on-rate (kon) was 1.62e+06 M⁻¹ s⁻¹.
